Measurements from PMC2150586 (The Journal of Cell Biology, 1999).

Experiments:
[1] = molecular target: T1, GSTCdc24–MBPFar1 complex, isolated by sequential purification on amylose and glutathione resin (S. cerevisiae, UniProt P11433;P21268); test: pull-down
T1 sequence 1: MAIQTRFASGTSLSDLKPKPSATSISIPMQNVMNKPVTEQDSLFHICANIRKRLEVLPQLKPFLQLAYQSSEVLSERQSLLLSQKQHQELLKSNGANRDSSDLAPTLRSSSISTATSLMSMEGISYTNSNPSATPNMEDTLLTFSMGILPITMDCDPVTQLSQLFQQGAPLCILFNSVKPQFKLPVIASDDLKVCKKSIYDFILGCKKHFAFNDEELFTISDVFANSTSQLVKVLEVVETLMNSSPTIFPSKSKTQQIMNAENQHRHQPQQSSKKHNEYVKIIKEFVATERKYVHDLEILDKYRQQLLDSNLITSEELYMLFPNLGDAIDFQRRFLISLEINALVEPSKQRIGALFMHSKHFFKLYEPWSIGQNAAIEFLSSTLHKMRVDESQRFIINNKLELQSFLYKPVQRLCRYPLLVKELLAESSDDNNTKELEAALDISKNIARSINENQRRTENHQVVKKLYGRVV
T1 sequence 2: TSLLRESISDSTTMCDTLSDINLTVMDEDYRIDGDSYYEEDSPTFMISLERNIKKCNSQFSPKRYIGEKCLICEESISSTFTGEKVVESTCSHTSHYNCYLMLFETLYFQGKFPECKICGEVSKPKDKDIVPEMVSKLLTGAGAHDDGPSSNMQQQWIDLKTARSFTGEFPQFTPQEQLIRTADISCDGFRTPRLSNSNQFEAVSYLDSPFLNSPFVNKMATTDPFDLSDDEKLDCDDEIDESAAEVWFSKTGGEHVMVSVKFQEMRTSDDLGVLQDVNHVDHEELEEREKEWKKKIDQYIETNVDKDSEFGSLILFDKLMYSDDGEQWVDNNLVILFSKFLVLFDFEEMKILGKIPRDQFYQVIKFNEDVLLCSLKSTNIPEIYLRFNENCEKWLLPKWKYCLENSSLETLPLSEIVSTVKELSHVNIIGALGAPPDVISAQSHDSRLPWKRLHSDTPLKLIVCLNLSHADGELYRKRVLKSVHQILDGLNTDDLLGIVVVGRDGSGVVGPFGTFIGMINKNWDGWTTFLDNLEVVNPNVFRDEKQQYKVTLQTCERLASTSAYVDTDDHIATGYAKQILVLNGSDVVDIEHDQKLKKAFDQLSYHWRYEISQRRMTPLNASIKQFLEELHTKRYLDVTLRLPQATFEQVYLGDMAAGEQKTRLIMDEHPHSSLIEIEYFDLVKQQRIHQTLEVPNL

[2] = molecular target: T2, GSTCdc24 (NH2-terminal 472 amino acids of Cdc24p fused to GST) (S. cerevisiae, UniProt P11433 1-472); test: pull-down
T2 sequence: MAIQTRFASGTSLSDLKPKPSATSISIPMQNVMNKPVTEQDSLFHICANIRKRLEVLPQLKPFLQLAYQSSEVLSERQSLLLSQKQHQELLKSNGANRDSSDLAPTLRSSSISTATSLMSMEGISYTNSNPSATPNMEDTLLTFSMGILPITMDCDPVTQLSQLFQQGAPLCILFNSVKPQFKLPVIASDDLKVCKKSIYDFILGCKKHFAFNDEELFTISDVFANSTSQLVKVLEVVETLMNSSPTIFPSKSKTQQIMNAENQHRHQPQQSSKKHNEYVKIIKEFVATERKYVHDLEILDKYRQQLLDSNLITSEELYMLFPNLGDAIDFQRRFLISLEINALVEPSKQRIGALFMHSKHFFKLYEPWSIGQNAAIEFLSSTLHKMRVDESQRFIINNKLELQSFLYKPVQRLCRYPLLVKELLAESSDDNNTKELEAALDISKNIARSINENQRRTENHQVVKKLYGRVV

B1: HASte4p purified from yeast (from HASte4-(TEV)-protein A, released with TEV protease) (natural protein)
chain: MAAHQMDSITYSNNVTQQYIQPQSLQDISAVEDEIQNKIEAARQESKQLHAQINKAKHKIQDASLFQMANKVTSLTKNKINLKPNIVLKGHNNKISDFRWSRDSKRILSASQDGFMLIWDSASGLKQNAIPLDSQWVLSCAISPSSTLVASAGLNNNCTIYRVSKENRVAQNVASIFKGHTCYISDIEFTDNAHILTASGDMTCALWDIPKAKRVREYSDHLGDVLALAIPEEPNSENSSNTFASCGSDGYTYIWDSRSPSAVQSFYVNDSDINALRFFKDGMSIVAGSDNGAINMYDLRSDCSIATFSLFRGYEERTPTPTYMAANMEYNTAQSPQTLKSTSSSYLDNQGVVSLDFSASGRLMYSCYTDIGCVVWDVLKGEIVGKLEGHGGRVTGVRSSPDGLAVCTGSWDSTMKIWSPGYQ
[1]
  fold HASte4p bound against a similar amount of GSTCdc24 alone: 2 fold
[2]
  fold increase of HASte4p bound when MBPFar1 is added: ~2 fold
